# Data as given in publication PMC2742306 (Molecular cell, 2009).
# Key:
# Test in all cases: cell-based or functional assay
# [1] = target: T1, DegS K243D/D320A double mutant (residues 27–355, N-terminal His6 tag) (E. coli, UniProt P0AEE3 27-355, K243D | D320A)
# T1 sequence (looked up): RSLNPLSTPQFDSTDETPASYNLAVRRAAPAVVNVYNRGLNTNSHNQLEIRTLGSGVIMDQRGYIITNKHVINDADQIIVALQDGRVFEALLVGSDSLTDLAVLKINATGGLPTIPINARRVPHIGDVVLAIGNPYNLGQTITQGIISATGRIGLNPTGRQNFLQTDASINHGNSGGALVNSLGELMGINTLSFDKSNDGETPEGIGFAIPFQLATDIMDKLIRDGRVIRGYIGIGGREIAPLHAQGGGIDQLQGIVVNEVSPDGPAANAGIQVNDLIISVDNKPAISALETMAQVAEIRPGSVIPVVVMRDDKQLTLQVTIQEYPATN
# [2] = target: T2, DegS K243D/M319A double mutant (residues 27–355, N-terminal His6 tag) (E. coli, UniProt P0AEE3 27-355, K243D | M319A)
# T2 sequence (looked up): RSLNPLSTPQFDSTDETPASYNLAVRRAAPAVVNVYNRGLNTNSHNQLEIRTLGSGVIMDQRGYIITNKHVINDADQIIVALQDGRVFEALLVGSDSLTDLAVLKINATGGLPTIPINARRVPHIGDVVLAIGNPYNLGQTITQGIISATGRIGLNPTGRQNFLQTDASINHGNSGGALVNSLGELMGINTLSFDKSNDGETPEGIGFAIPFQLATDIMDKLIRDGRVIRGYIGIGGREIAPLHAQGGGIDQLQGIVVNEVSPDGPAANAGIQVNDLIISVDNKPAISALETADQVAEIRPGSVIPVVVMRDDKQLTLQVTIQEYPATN
# [3] = target: T3, DegS D320A (residues 27–355, N-terminal His6 tag) (E. coli, UniProt P0AEE3 27-355, D320A)
# T3 sequence (looked up): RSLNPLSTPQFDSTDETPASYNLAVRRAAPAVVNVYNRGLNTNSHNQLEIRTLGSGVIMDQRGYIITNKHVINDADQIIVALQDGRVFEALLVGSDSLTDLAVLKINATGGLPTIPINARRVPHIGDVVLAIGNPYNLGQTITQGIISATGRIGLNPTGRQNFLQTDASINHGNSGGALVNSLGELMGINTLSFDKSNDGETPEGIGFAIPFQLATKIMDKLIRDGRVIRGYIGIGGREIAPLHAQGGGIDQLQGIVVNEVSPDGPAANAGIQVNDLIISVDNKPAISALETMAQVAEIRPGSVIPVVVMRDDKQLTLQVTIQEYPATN
# [4] = target: T4, DegS K243D (residues 27–355, N-terminal His6 tag) (E. coli, UniProt P0AEE3 27-355, K243D)
# T4 sequence (looked up): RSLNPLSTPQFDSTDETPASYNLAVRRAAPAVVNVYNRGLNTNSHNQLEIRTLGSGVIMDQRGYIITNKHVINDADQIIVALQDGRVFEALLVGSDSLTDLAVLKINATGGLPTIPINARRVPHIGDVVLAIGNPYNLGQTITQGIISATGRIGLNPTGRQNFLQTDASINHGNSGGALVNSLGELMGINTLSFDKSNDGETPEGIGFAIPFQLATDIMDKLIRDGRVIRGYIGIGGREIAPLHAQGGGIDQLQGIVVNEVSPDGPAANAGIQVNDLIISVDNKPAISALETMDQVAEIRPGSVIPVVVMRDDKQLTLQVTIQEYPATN
binder,measurement,setting,value
"35S-labeled variant of the periplasmic domain of E. coli RseA (residues 121–216) with a C-terminal His6 tag (domain or fragment, UniProt P0AFX7 121-216, looked up, 35S-labeled) YNGQSETSQQPETPVFNTLPMMGKASPVSLGVPSEATANNGQQQQVQEQRRRINAMLQDYELQRRLHSEQLQFEQAQTQQAAVQVPGIQTLGTQSQ",KM of RseA cleavage with saturating … peptide,[1],630 µM
same,KM of RseA cleavage with saturating YYF peptide,[2],490 µM
same,KM of RseA cleavage with saturating … peptide,[2],840 µM
same,KM of RseA cleavage with saturating YYF peptide,[3],430 µM
same,KM of RseA cleavage with saturating … peptide,[3],520 µM
same,KM of RseA cleavage with saturating YYF peptide,[4],440 µM
same,KM of RseA cleavage with saturating … peptide,[4],580 µM
